From ChEMBL document CHEMBL3526099, “Metabolism of triethylenetetramine and 1,12-diamino-3,6,9-triazadodecane by the spermidine/spermine-N(1)-acetyltransferase and thialysine acetyltransferase” (Drug Metab Dispos, 2013)

Legend:
NCCNCCNCCN = experiment: not read
NCCCNCCNCCNCCN = experiment: Drug metabolism assessed as mouse SSAT1-mediated metabolite formation; assay type: ADME

Diamine acetyltransferase 1 (Homo sapiens), sequence (chain, as listed by the source): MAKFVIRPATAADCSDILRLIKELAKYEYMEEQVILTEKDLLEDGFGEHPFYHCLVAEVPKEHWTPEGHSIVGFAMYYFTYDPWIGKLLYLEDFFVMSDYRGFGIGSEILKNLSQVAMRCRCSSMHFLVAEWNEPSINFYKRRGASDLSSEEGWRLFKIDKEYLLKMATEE
Diamine acetyltransferase 1 (Mus musculus), sequence (chain, as listed by the source): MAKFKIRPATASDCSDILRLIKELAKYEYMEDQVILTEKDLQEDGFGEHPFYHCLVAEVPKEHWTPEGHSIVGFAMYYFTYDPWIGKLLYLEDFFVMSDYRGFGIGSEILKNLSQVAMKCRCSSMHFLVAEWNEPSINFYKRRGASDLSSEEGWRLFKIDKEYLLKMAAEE

## Diamine acetyltransferase 1 (Homo sapiens)
NCCNCCNCCN
  Km: 83 µM
  Vmax: 0.9 µmol/min/mg

## Diamine acetyltransferase 1 (Mus musculus)
NCCCNCCNCCNCCN
  Km: 106 µM
  Vmax: 1.17 µmol/min/mg
